Kd data for 2 substances are collected here from paper PMC11098500.

Assay [1] deals with domestic dog ACE2 ectodomain (residues 1-614), Fc-tagged (domestic dog). The experiment in a line: SPR. (In general: In SPR one partner is held on a chip, and binding of the other changes the refractive index at the surface.)
Assay [2] concerns the target raccoon dog ACE2 ectodomain (residues 1-614), Fc-tagged (raccoon dog) (UniProt B4XEP4). Nature of the assay: SPR.

Values joined by “and” are separate entries in the source; they are usually repeats but may differ in a detail not shown here. Identical values can stand only once.

Take “SARS-CoV-2 RBD (prototypic strain, residues 319-529), His-tagged (from UniProt P0DTC2 319-529) (domain or fragment)”: the dissociation constant Kd (usually a measure of binding affinity in units of concentration) in assay [1] was 0.518 µM and 0.524 µM and 0.361 µM; in assay [2], 0.297 µM and 0.449 µM and 0.45 µM.
The substance “SARS-CoV-2 RBD (residues 319-529), His-tagged (from UniProt P0DTC2 319-529) (domain or fragment)” registered a Kd in assay [1] of 0.468 µM.
